Assay [1] deals with T1, hmm.hTfRC (REGN2431), human transferrin receptor extracellular domain with hexahistidine-myc-myc tag (human, UniProt P02786 89-760).
T1 construct: Monomeric recombinant protein, 79210 g/mol; also called hTFR-mmh; His-myc-myc-hTFRC ecto
Nature of the assay: SPR (Biacore), mAb captured on anti-human Fc, 100 nM hTFR-mmh, 25 C. On the procedure: (§1) Biacore binding kinetics assays were conducted for the interaction of 32 anti-human TfR IgG1 monoclonal antibodies from CHO supernatants with TfR reagents at 25° C.
(§2) Equilibrium dissociation constants (KD) for the interaction of anti-TfR monoclonal antibodies with human and fascicularis monkey TfR ecto domain recombinant proteins were determined using a real-time surface plasmon resonance (SPR) based Biacore S200 biosensor. All binding studies were performed in 10 mM HEPES, 150 mM NaCl, 3 mM EDTA, and 0.05% v/v surfactant Tween-20, pH 7.4 (HBS-EP) running buffer at […]. The Biacore CM5 sensor surface was first derivatized by amine coupling with a monoclonal mouse anti-human Fc antibody (REGN2567) followed by a step to capture anti-TfR monoclonal antibodies in CHO conditioned media. […] The dissociation of TfR bound to anti-TfR monoclonal antibodies was monitored for 3 minutes in HBS-EP running buffer. At the end of each cycle, the anti-TfR monoclonal antibodies capture surface was regenerated using a 12-sec injection of 20 mM H₃PO₄. The association rate (ka) and dissociation rate (kd) were determined by fitting the real-time binding sensorgrams to a 1:1 binding model with mass transport limitation using Scrubber 2.0 c software. The dissociation equilibrium constant (KD) and dissociative half-life (t½) were calculated from the kinetic rate constants as: […]
(In SPR one partner is held on a chip, and binding of the other changes the refractive index at the surface.)

Assay [2] deals with T2, mf TFRC ecto-mmh (REGN2054), monomeric monkey (cyno) Tfrc ectodomain with C-terminal myc-myc-hexahistidine tag (monkey (cyno), Macaca fascicularis, UniProt H9EXL1 89-760).
T2 construct: range 89-760; also called mfTfR-mmh; mfTFR-mmh
Nature of the assay: SPR (Biacore), mAb captured on anti-human Fc, 100 nM mfTfR-mmh, 25 C. On the procedure:
as §1, §2

A word on the Kd: it is the constant that tells how readily two partners part at equilibrium. What is called koff is the rate constant with which the complex falls apart. Usually kon stands for the rate constant with which the complex forms. Broadly, the t½ is the time needed for the level to fall by half in the phase considered.

T1 sequence (P02786 other isoform, or with tags, fused parts or gaps): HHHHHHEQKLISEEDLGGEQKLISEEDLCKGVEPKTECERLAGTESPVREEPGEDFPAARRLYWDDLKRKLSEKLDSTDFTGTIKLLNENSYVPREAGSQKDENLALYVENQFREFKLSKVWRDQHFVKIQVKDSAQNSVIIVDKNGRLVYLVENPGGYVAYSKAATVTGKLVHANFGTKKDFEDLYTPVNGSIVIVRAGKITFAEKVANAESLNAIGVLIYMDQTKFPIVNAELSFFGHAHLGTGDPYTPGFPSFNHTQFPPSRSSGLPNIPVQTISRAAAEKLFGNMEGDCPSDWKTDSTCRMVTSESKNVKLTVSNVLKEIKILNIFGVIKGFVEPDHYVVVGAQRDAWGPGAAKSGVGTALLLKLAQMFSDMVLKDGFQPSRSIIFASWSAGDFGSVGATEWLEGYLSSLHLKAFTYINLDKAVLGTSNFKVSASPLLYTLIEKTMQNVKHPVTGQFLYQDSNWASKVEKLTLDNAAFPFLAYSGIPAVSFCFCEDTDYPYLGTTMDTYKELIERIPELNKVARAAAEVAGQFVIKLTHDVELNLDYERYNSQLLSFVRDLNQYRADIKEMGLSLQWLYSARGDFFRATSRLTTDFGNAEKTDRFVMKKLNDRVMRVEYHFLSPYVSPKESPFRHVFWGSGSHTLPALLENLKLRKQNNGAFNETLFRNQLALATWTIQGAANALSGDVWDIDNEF
T2 sequence (chain, as listed by the source): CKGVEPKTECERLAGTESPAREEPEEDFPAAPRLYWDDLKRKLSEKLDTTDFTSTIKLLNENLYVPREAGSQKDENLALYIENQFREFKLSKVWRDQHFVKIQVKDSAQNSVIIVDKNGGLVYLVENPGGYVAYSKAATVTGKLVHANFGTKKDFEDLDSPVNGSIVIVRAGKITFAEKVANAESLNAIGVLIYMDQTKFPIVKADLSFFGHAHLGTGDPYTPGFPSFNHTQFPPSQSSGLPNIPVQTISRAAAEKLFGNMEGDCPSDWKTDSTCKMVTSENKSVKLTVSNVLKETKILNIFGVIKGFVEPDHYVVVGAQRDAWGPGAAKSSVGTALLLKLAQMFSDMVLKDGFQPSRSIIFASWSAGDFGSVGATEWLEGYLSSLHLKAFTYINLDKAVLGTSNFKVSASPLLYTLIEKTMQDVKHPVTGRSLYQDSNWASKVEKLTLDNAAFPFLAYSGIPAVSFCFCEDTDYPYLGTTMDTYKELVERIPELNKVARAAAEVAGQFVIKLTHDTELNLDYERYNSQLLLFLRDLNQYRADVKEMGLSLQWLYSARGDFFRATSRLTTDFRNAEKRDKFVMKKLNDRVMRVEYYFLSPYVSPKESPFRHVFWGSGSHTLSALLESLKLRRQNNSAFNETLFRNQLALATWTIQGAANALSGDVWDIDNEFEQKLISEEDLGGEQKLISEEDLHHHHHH

B1: 69340 (antibody, human IgG1, kappa, V domains shown)
VH: EVQLVESGGGLVQPGRSLRLSCAASGFTFDDKAMHWVRQVPGKGLEWISGISWNSGTIGYADSVKGRFIISRDNAKNSLYLQMNSLRAEDTALYYCAKDGDTSGWYWYGLDVWGQGTTVTVSS
VL: EIVLTQSPATLSLSPGERATLSCRASQSVSSYLAWYQQKPGQAPRLLIHDVSNRATGIPARFSGSGSGTDFTLTISSLEPEDFVVYYCQQRSDWPITFGQGTRLEIKR
notes: Tested as bivalent human IgG1 from CHO primary supernatant
Take B1: in assay [1], the “100 nM Ag Bound (RU)” value was 999 RU, the Kd came out at 0.429 nM, the koff worked out at 6.23e-05 s⁻¹ and the kon worked out at 144000 M⁻¹ s⁻¹. This molecule also came in with a t½ in assay [1] of 185 min. In assay [2], the “100 nM Ag Bound (RU)” value worked out at 634 RU, binding was put at a Kd of 8.11 nM, the koff was determined as 0.000723 s⁻¹ and the kon worked out at 89200 M⁻¹ s⁻¹. In assay [2], this molecule gave a t½ of 16 min.

B2: 12799B (antibody, human IgG1, kappa, V domains shown)
VH: QITLKESGPTLVKPTQTLTLTCTFSGFSLSTSGVGVVWIRQPPGKALEWLALIYWNDHKRYSPSLGSRLTITKDTSKNQVVLTMTNMDPVDTATYYCAHYSGSYSYYYYGLDVWGQGTTVTVSS
VL: DIQMTQSPSSVSASVGDRVTITCRASQGIASWLAWYQQKPGKAPELLIYAASSLQGGVPSRFSGSGSGTDFTLTISSLQPEDFAIYYCQQANYFPWTFGQGTKVEIKR
notes: Tested as bivalent human IgG1 from CHO primary supernatant; also called H1H12799B; REGN17508
In the case of B2, in assay [1], the “100 nM Ag Bound (RU)” value turned out to be 699 RU, binding was characterised by a dissociation constant (Kd) of 0.851 nM, the off-rate (koff) was 6.62e-05 s⁻¹ and the kon stood at 77600 M⁻¹ s⁻¹. In addition, the t½ in assay [1] was determined as 174 min. In assay [2], the “100 nM Ag Bound (RU)” value was 651 RU; the affinity, expressed as Kd, was 1.88 nM; the koff came to 0.000162 s⁻¹; the kon came to 86400 M⁻¹ s⁻¹. The same molecule returned a t½ in assay [2] of 71.2 min.

B3: 31874B (antibody, human IgG1, kappa, V domains shown)
VH: EVQLVESGGGLVQPGGSLRLSCAASGFAFSSYAMTWVRQAPGKGLEWVSVISGTGGSTYYADSVKGRFTISRDNSKNTLYLQMNSLRAEDTAVYYCAKGGAARRMEYFQYWGQGTLVTVSS
VL: DIQMTQSPSSLSASVGDRVTITCRASQGISNYLAWYQQKPGKVPNLLIYAASTLQSGVPSRFSGSGSGTDFTLTISSLQPEDVATYYCQKYNSAPLTFGGGTKVEIKR
notes: Tested as bivalent human IgG1 from CHO primary supernatant; also called H1H31874B; REGN17517
For B3, in assay [1], the “100 nM Ag Bound (RU)” value came out at 904 RU; the affinity, expressed as Kd, was 0.836 nM; the koff is 0.000115 s⁻¹; the kon came to 138000 M⁻¹ s⁻¹. Besides, the t½ in assay [1] amounted to 100 min. For the same molecule, in assay [2], the “100 nM Ag Bound (RU)” value is 26 RU, binding was put at a Kd of 14.4 nM, the koff worked out at 0.00996 s⁻¹ and the kon stood at 691000 M⁻¹ s⁻¹. Further, the t½ in assay [2] turned out to be 1.2 min.

B4: 69331 (antibody, human IgG1, kappa, V domains shown)
VH: QVQLVESGGGVVQPGRSLRLSCIASGFTFSVYGIHWVRQAPGKGLEWMAVISHDGNIKHYADSVKGRFTISRDNSKNTLYLQINSLRTEDTAVYYCAKDTWNSLDTFDIWGQGTMVTVSS
VL: DIQLTQSPSSLSASVGDRVTITCWASQGISSYLAWYQQKPGKAPKLLIYAASTLQSGVPSRFSGSGSGTEFTLTISSLQPEDFATYYCQQLNSYPLTFGGGTKVEIKR
notes: as for B1
As for B4, in assay [1], the “100 nM Ag Bound (RU)” value amounted to 87 RU, binding was characterised by a dissociation constant (Kd) of 41 nM, the koff turned out to be 0.00466 s⁻¹ and the kon worked out at 114000 M⁻¹ s⁻¹. In assay [1], the t½ was found to be 2.5 min. Besides, in assay [2], the “100 nM Ag Bound (RU)” value was found to be 26 RU, binding was characterised by a dissociation constant (Kd) of 20.5 nM, the koff was 0.01 s⁻¹ and the kon was 489000 M⁻¹ s⁻¹. The molecule also had a t½ in assay [2] of 1.2 min.

B5: 69263 (antibody, human IgG1, kappa, V domains shown)
VH: EVQLVESGGGLVQPGRSLRLSCAVSGFTFDDYAMHWVRQAPGKGLEWVSGISWNSGTRGYADSVKGRFTISRDNAKNSLYLQMNSLRGEDTALYYCVKDITISPNYYGMDVWGQGTTVTVSS
VL: DIQMTQSPSSLSASVGDRVTITCRASQDISHYSAWYQQKPGKLPNLLIYAASTLQSGVPSRFSGSGSGTDFSLTTSSLQPEDVATYYCQKYNSVPLTFGGGTKVEIKR
notes: as for B1
Consider B5, for which, in assay [1], the “100 nM Ag Bound (RU)” value came out at 150 RU, binding was put at a Kd of 6.5 nM, the koff was 0.00115 s⁻¹ and the kon worked out at 177000 M⁻¹ s⁻¹. In assay [1], this molecule gave a t½ of 10 min. In assay [2], the “100 nM Ag Bound (RU)” value was determined as 77 RU, binding was characterised by a dissociation constant (Kd) of 19.2 nM, the koff is 0.00378 s⁻¹ and the kon is 197000 M⁻¹ s⁻¹. The same molecule showed a t½ in assay [2] of 3.1 min.

B6: 12798B (antibody, human IgG1, kappa, V domains shown)
VH: EVQLVESGGDLVQPGRSLRLSCAASGFTFDDYAMHWVRQAPGKGLEWVSGISWNSATRVYADSVKGRFTISRDNAKNFLYLQMNSLRSEDTALYHCAKDMDISLGYYGLDVWGQGTTVTVSS
VL: not shown
notes: Tested as bivalent human IgG1 from CHO primary supernatant; also called H1H12798B; REGN17507
Regarding B6, in assay [1], the “100 nM Ag Bound (RU)” value is 1150 RU, binding was put at a Kd of 0.387 nM, the koff stood at 6.33e-05 s⁻¹ and the kon came out at 163000 M⁻¹ s⁻¹. The same molecule displayed a t½ in assay [1] of 183 min. Moreover, in assay [2], the “100 nM Ag Bound (RU)” value was found to be 508 RU, binding was characterised by a dissociation constant (Kd) of 16.3 nM, the koff was found to be 0.00129 s⁻¹ and the kon turned out to be 79000 M⁻¹ s⁻¹. This molecule also showed a t½ in assay [2] of 9 min.

B7: 12816B (antibody, human IgG1, kappa, V domains shown)
VH: QVQLVESGGGLVKPGGSLRLSCAASGFTFSDYYMNWIRQAPGKGLEWVSYISSSGTTIYYADSVKGRFTISRDNAKKSLYLEMNSLRAEDTAVYYCAREGYGNDYYYYGIDVWGQGTTVTVSS
VL: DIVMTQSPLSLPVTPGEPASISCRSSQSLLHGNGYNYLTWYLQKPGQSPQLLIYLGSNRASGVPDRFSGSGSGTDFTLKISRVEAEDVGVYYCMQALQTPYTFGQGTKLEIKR
notes: as for B1
For B7, in assay [1], the “100 nM Ag Bound (RU)” value turned out to be 357 RU, binding was characterised by a dissociation constant (Kd) of 5.8 nM, the koff stood at 0.000336 s⁻¹ and the on-rate constant (kon) is 57900 M⁻¹ s⁻¹. In assay [1], the t½ was found to be 34.3 min. In addition, in assay [2], the “100 nM Ag Bound (RU)” value is 315 RU, the Kd was 7.44 nM, the koff came out at 0.000485 s⁻¹ and the kon amounted to 65200 M⁻¹ s⁻¹. The t½ in assay [2] was determined as 23.8 min.

B8: 69261 (antibody, human IgG1, kappa, V domains shown)
VH: QVQLVESGGGLVKPGGSLRLSCAASGFTFSVYYMNWIRQAPGKGLEWVSYISSSGSTIYYADSVKGRFTISRDNAKNSLYLQMNSLRAEDTAVYYCGREGYSGTYSYYGMDVWGQGTTVTVSS
VL: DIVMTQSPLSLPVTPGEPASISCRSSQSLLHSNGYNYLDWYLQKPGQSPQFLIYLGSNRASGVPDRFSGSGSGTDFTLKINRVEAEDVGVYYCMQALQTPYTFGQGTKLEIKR
notes: as for B1
As to B8, in assay [1], the “100 nM Ag Bound (RU)” value was found to be 462 RU, the Kd amounted to 1.16 nM, the koff amounted to 8.08e-05 s⁻¹ and the association rate constant (kon) amounted to 70000 M⁻¹ s⁻¹. Further, the t½ in assay [1] came to 143 min. Besides, in assay [2], the “100 nM Ag Bound (RU)” value turned out to be 331 RU, the equilibrium dissociation constant (Kd) is 5.9 nM, the koff is 0.000403 s⁻¹ and the kon was 68300 M⁻¹ s⁻¹. The same molecule came in with a t½ in assay [2] of 28.7 min.

B9: 12833B (antibody, human IgG1, kappa, V domains shown)
VH: QVQLVESGGGVVQPGRSLRLSCAASGFTFSSFGMHWVRQAPGKGLEWVIFISYDGSDKYYADSVKGRFAISRDSSKNTLYLQMNSLRAEDTAVYYCAKENGILTDSYGMDVWGQGTTVTVSS
VL: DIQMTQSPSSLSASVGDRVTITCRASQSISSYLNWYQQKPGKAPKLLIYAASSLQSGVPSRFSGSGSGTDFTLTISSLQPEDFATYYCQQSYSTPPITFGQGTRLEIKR
notes: as for B1
Regarding B9, in assay [1], the “100 nM Ag Bound (RU)” value turned out to be 409 RU, the Kd was determined as 3.51 nM, the koff came out at 0.000252 s⁻¹ and the kon is 72000 M⁻¹ s⁻¹. Moreover, the t½ in assay [1] was found to be 45.9 min. In assay [2], the “100 nM Ag Bound (RU)” value amounted to 346 RU, binding was put at a Kd of 7.02 nM, the koff came to 0.000486 s⁻¹ and the kon came out at 69200 M⁻¹ s⁻¹. In assay [2], the t½ stood at 23.8 min.

B10: 69323 (antibody, human IgG1, kappa, V domains shown)
VH: EVQLVESGGGLVQPGRSLRLSCAASGFTFDDYAMHWVRQAPGKGLEWVSGISWNSGYIGYADSVKGRFTISRDNAENSLHLQMNSLRAEDTALYYCARGGSTLVRGVKGGYYGMDVWGQGTTVTVSS
VL: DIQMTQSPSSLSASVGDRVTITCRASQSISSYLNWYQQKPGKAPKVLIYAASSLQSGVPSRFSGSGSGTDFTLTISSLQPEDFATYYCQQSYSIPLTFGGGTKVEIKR
notes: as for B1
Take B10: in assay [1], the “100 nM Ag Bound (RU)” value turned out to be 465 RU, the Kd worked out at 2.45 nM, the koff was determined as 0.00018 s⁻¹ and the kon is 73400 M⁻¹ s⁻¹. This molecule yielded a t½ in assay [1] of 64.1 min. In addition, in assay [2], the “100 nM Ag Bound (RU)” value worked out at 24 RU, the Kd amounted to 19 nM, the koff was determined as 0.0106 s⁻¹ and the kon was 558000 M⁻¹ s⁻¹. Moreover, the t½ in assay [2] was determined as 1.1 min.

B11: 69348 (antibody, human IgG1, kappa, V domains shown)
VH: QVQLVESGGGVVQPGRSLRLSCAASGFTFTTYGMHWVRQAPGKGLEWVAVIWYDGSNKYYGDSVKGRFTISRDNSKNTLYLQMNSLRVDDTAVYYCTRTHGYTRSSDGFDYWGQGTLVTVSS
VL: DIQMTQSPSSLSASVGDRVTITCRASQSIRNVLGWFQQKPGKAPQRLIYAASSLQSGVPSRFSGSGSGTEFTLTISSLQPEDFATYYCLQHNFYPLTFGGGTKVEIKR
notes: as for B1
As for B11, in assay [1], the “100 nM Ag Bound (RU)” value was 680 RU, the Kd came out at 1.62 nM, the koff came to 0.000172 s⁻¹ and the kon came out at 106000 M⁻¹ s⁻¹. In addition, in assay [1], the t½ turned out to be 67.2 min. Also, in assay [2], the “100 nM Ag Bound (RU)” value is 433 RU, binding was characterised by a dissociation constant (Kd) of 4.8 nM, the koff is 0.000461 s⁻¹ and the kon came out at 96000 M⁻¹ s⁻¹. This molecule displayed a t½ in assay [2] of 25.1 min.

(Values after patent publication US20250049896A1 (Regeneron, published 2025).)
